Results: the supplement of paper PMC9112550, “Optimization of the antimicrobial peptide Bac7 by deep mutational scanning” (BMC Biology, 2022)

test system: Escherichia coli TOP10; test: shrunken log2 fold change of peptide-encoding DNA abundance (4.5 h post-induction vs induction); higher = less antimicrobial activity (less host growth inhibition); settings: time post-induction: 4.5 h; library: site-saturation at positions 5, 18, 19, 20
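Further: peptides expressed intracellularly from a pBAD plasmid library in pooled LB shake-flask culture, induced with 0.3% L-arabinose, DNA abundance read by NGS, three biological replicates, DESeq2 with apeglm shrinkage.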

Sequence	shrunken log2 fold change
RRIRSRPPRLPRPRPRPAWTPRP	0.0161
RRIRLRPPRLPRPRPRPFHWPRP	-0.000687
RRIRLRPPRLPRPRPRPNPCPRP	-0.398
RRIRARPPRLPRPRPRPYNRPRP	-0.186
RRIRGRPPRLPRPRPRPEVNPRP	1.62
RRIRWRPPRLPRPRPRPQGMPRP	-0.225
RRIRQRPPRLPRPRPRPNTAPRP	-0.0235
RRIRQRPPRLPRPRPRPANAPRP	-0.0699
RRIRCRPPRLPRPRPRPASTPRP	-0.481
RRIRHRPPRLPRPRPRPQPHPRP	-0.0753
RRIRVRPPRLPRPRPRPSSMPRP	-0.157
RRIRPRPPRLPRPRPRPNMCPRP	-0.0958
RRIRIRPPRLPRPRPRPMDDPRP	0.0135
RRIRCRPPRLPRPRPRPVGKPRP	0.0374
RRIRQRPPRLPRPRPRPQAYPRP	-0.0257
RRIRQRPPRLPRPRPRPPRRPRP	0.852
RRIRHRPPRLPRPRPRPVTTPRP	0.0639
RRIRQRPPRLPRPRPRPWFKPRP	-0.183
RRIRVRPPRLPRPRPRPMFEPRP	0.0774
RRIRFRPPRLPRPRPRPCFFPRP	-0.378
RRIRVRPPRLPRPRPRPGKCPRP	0.0804
RRIRGRPPRLPRPRPRPINIPRP	0.00461
RRIRERPPRLPRPRPRPDYHPRP	-0.486
RRIRFRPPRLPRPRPRPFKIPRP	-0.049
RRIRARPPRLPRPRPRPYNDPRP	-1.28

Sequence	shrunken log2 fold change
RRIRIRPPRLPRPRPRPKHDPRP	-0.463
RRIRQRPPRLPRPRPRPTVIPRP	-0.0817
RRIRWRPPRLPRPRPRPLDVPRP	0.00856
RRIRKRPPRLPRPRPRPVHPPRP	0.189
RRIRIRPPRLPRPRPRPGYLPRP	2.69
RRIRARPPRLPRPRPRPYAVPRP	-0.0829
RRIRHRPPRLPRPRPRPDAQPRP	0.0391
RRIRLRPPRLPRPRPRPHWKPRP	0.0019
RRIRFRPPRLPRPRPRPQWFPRP	-0.344
RRIRGRPPRLPRPRPRPDTFPRP	0.43
RRIRLRPPRLPRPRPRPDIVPRP	-0.0115
RRIRTRPPRLPRPRPRPYFWPRP	-0.299
RRIRTRPPRLPRPRPRPTDDPRP	-0.078
RRIRNRPPRLPRPRPRPRPAPRP	0.313
RRIRERPPRLPRPRPRPKHGPRP	-0.017
RRIRYRPPRLPRPRPRPAQRPRP	-0.0772
RRIRSRPPRLPRPRPRPLKHPRP	-0.39
RRIRQRPPRLPRPRPRPIFDPRP	-0.0877
RRIRYRPPRLPRPRPRPTKDPRP	-1.04
RRIRNRPPRLPRPRPRPFKCPRP	-0.0598
RRIRNRPPRLPRPRPRPEMSPRP	-0.0389
RRIRLRPPRLPRPRPRPENIPRP	-0.519
RRIRMRPPRLPRPRPRPRHRPRP	0.249
RRIRIRPPRLPRPRPRPMDGPRP	-0.108
RRIRARPPRLPRPRPRPGPDPRP	0.455

Sequence	shrunken log2 fold change
RRIRHRPPRLPRPRPRPDFMPRP	-0.0635
RRIRFRPPRLPRPRPRPRKRPRP	0.263
RRIRKRPPRLPRPRPRPFVLPRP	0.389
RRIRERPPRLPRPRPRPSHDPRP	-0.118
RRIRMRPPRLPRPRPRPNEQPRP	0.37
RRIRNRPPRLPRPRPRPSGNPRP	-0.315
RRIRPRPPRLPRPRPRPMQEPRP	-0.0107
RRIRMRPPRLPRPRPRPDESPRP	2.38
RRIRERPPRLPRPRPRPKVFPRP	0.0354
RRIRKRPPRLPRPRPRPFYPPRP	-0.0703
RRIRPRPPRLPRPRPRPPLSPRP	0.161
RRIRTRPPRLPRPRPRPTHPPRP	0.312
RRIRVRPPRLPRPRPRPWEHPRP	0.0927
RRIRVRPPRLPRPRPRPVQFPRP	-0.488
RRIRFRPPRLPRPRPRPFANPRP	-0.124
RRIRHRPPRLPRPRPRPARIPRP	0.0499
RRIRYRPPRLPRPRPRPKDMPRP	0.0203
RRIRFRPPRLPRPRPRPCPGPRP	-0.151
RRIRTRPPRLPRPRPRPFHYPRP	-0.0376
RRIRHRPPRLPRPRPRPHCYPRP	0.0262
RRIRIRPPRLPRPRPRPTNAPRP	-0.0508
RRIRLRPPRLPRPRPRPRTWPRP	0.111
RRIRTRPPRLPRPRPRPYHCPRP	0.0119
RRIRTRPPRLPRPRPRPLNYPRP	-0.415
RRIRYRPPRLPRPRPRPCAVPRP	-0.269
